10 variants from the supplement of paper PMC10266784 can be followed below.

Sequences and labels used below:
B1: library; numbered along this chain (parent)
chain: MAAAAAAAAEQQSSNGPVKKSMREKAVERRSVNKEHNSNFKAGYIPIDEDRLHKTGLRGRKGNLAICVIILLFILAVINLIITLVIWAVIRIGPNGCDSMEFHESGLLRFKQVSDMGVIHPLYKSTVGGRRNENLVITGNNQPIVFQQGTTKLSVENNKTSITSDIGMQFFDPRTQNILFSTDYETHEFHLPSGVKSLNVQKASTERITSNATSDLNIKVDGRAIVRGNEGVFIMGKTIEFHMGGNMELKAENSIILNGSVMVSTTRLPSSSSGDQLGSGDWVRYKLCMCADGTLFKVQVTSQNMGCQISDNPCGNTH

In the series the parent is B1. The experiment in a line: SGCB cell-surface expression functional score (HA stain, bin4 vs bin1, normalised to synonymous) (log10 ratio); higher = more cell-surface SGCB (functional). An outline of the steps: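 HEK293 cells stably expressing alpha-, gamma- and delta-sarcoglycan received codon-saturation libraries of HA-tagged, YFP-fused human beta-sarcoglycan by lentiviral transduction at MOI <0.1, performed in duplicate. Cells positive for YFP were sorted after 72 hours and cultured for 5–7 days, then stained on ice with Alexa Fluor 647 anti-HA and fixed. Fixed cells were sorted into four 5% intensity bins and amplicon-sequenced, and the log ratio of highest-bin to lowest-bin variant frequency, as a median over codons and transductions, gives the functional score. Per section, synonymous variants were scaled to mean 0, SD 0.5.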
As for MAAAAAAAAEQQSSNGPVKKSMREKAVERRSVNKEHNSNFKAGYIPIDEDRLHKTGLRGRKGNLAICVIILLFILAVINLIITLVIWMVIRIGPNGCDSMEFHESGLLRFKQVSDMGVIHPLYKSTVGGRRNENLVITGNNQPIVFQQGTTKLSVENNKTSITSDIGMQFFDPRTQNILFSTDYETHEFHLPSGVKSLNVQKASTERITSNATSDLNIKVDGRAIVRGNEGVFIMGKTIEFHMGGNMELKAENSIILNGSVMVSTTRLPSSSSGDQLGSGDWVRYKLCMCADGTLFKVQVTSQNMGCQISDNPCGNTH [A88M], the “SGCB cell-surface expression functional score (log10)” value was -0.05.
For MAAAAAAAAEQQSSNGPVKKSMREKAVERRSVNKEHNSNFKAGYIPIDEDRLHKTGLRGRKGNLAICVIILLFILAVINLIITLVIWQVIRIGPNGCDSMEFHESGLLRFKQVSDMGVIHPLYKSTVGGRRNENLVITGNNQPIVFQQGTTKLSVENNKTSITSDIGMQFFDPRTQNILFSTDYETHEFHLPSGVKSLNVQKASTERITSNATSDLNIKVDGRAIVRGNEGVFIMGKTIEFHMGGNMELKAENSIILNGSVMVSTTRLPSSSSGDQLGSGDWVRYKLCMCADGTLFKVQVTSQNMGCQISDNPCGNTH [A88Q], the “SGCB cell-surface expression functional score (log10)” value was determined as 0.15.
Consider MAAAAAAAAEQQSSNGPVKKSMREKAVERRSVNKEHNSNFKAGYIPIDEDRLHKTGLRGRKGNLAICVIILLFILAVINLIITLVIWIVIRIGPNGCDSMEFHESGLLRFKQVSDMGVIHPLYKSTVGGRRNENLVITGNNQPIVFQQGTTKLSVENNKTSITSDIGMQFFDPRTQNILFSTDYETHEFHLPSGVKSLNVQKASTERITSNATSDLNIKVDGRAIVRGNEGVFIMGKTIEFHMGGNMELKAENSIILNGSVMVSTTRLPSSSSGDQLGSGDWVRYKLCMCADGTLFKVQVTSQNMGCQISDNPCGNTH [A88I], for which the “SGCB cell-surface expression functional score (log10)” value amounted to 0.06.
As to MAAAAAAAAEQQSSNGPVKKSMREKAVERRSVNKEHNSNFKAGYIPIDEDRLHKTGLRGRKGNLAICVIILLFILAVINLIITLVIWRVIRIGPNGCDSMEFHESGLLRFKQVSDMGVIHPLYKSTVGGRRNENLVITGNNQPIVFQQGTTKLSVENNKTSITSDIGMQFFDPRTQNILFSTDYETHEFHLPSGVKSLNVQKASTERITSNATSDLNIKVDGRAIVRGNEGVFIMGKTIEFHMGGNMELKAENSIILNGSVMVSTTRLPSSSSGDQLGSGDWVRYKLCMCADGTLFKVQVTSQNMGCQISDNPCGNTH [A88R], the “SGCB cell-surface expression functional score (log10)” value is -0.43.
For MAAAAAAAAEQQSSNGPVKKSMREKAVERRSVNKEHNSNFKAGYIPIDEDRLHKTGLRGRKGNLAICVIILLFILAVINLIITLVIWKVIRIGPNGCDSMEFHESGLLRFKQVSDMGVIHPLYKSTVGGRRNENLVITGNNQPIVFQQGTTKLSVENNKTSITSDIGMQFFDPRTQNILFSTDYETHEFHLPSGVKSLNVQKASTERITSNATSDLNIKVDGRAIVRGNEGVFIMGKTIEFHMGGNMELKAENSIILNGSVMVSTTRLPSSSSGDQLGSGDWVRYKLCMCADGTLFKVQVTSQNMGCQISDNPCGNTH [A88K], the “SGCB cell-surface expression functional score (log10)” value was 0.62.
In the case of MAAAAAAAAEQQSSNGPVKKSMREKAVERRSVNKEHNSNFKAGYIPIDEDRLHKTGLRGRKGNLAICVIILLFILAVINLIITLVIWTVIRIGPNGCDSMEFHESGLLRFKQVSDMGVIHPLYKSTVGGRRNENLVITGNNQPIVFQQGTTKLSVENNKTSITSDIGMQFFDPRTQNILFSTDYETHEFHLPSGVKSLNVQKASTERITSNATSDLNIKVDGRAIVRGNEGVFIMGKTIEFHMGGNMELKAENSIILNGSVMVSTTRLPSSSSGDQLGSGDWVRYKLCMCADGTLFKVQVTSQNMGCQISDNPCGNTH [A88T] it was 0.17; in that of MAAAAAAAAEQQSSNGPVKKSMREKAVERRSVNKEHNSNFKAGYIPIDEDRLHKTGLRGRKGNLAICVIILLFILAVINLIITLVIWLVIRIGPNGCDSMEFHESGLLRFKQVSDMGVIHPLYKSTVGGRRNENLVITGNNQPIVFQQGTTKLSVENNKTSITSDIGMQFFDPRTQNILFSTDYETHEFHLPSGVKSLNVQKASTERITSNATSDLNIKVDGRAIVRGNEGVFIMGKTIEFHMGGNMELKAENSIILNGSVMVSTTRLPSSSSGDQLGSGDWVRYKLCMCADGTLFKVQVTSQNMGCQISDNPCGNTH [A88L], 0.14; in that of MAAAAAAAAEQQSSNGPVKKSMREKAVERRSVNKEHNSNFKAGYIPIDEDRLHKTGLRGRKGNLAICVIILLFILAVINLIITLVIWNVIRIGPNGCDSMEFHESGLLRFKQVSDMGVIHPLYKSTVGGRRNENLVITGNNQPIVFQQGTTKLSVENNKTSITSDIGMQFFDPRTQNILFSTDYETHEFHLPSGVKSLNVQKASTERITSNATSDLNIKVDGRAIVRGNEGVFIMGKTIEFHMGGNMELKAENSIILNGSVMVSTTRLPSSSSGDQLGSGDWVRYKLCMCADGTLFKVQVTSQNMGCQISDNPCGNTH [A88N], -0.37.
Under MAAAAAAAAEQQSSNGPVKKSMREKAVERRSVNKEHNSNFKAGYIPIDEDRLHKTGLRGRKGNLAICVIILLFILAVINLIITLVIWPVIRIGPNGCDSMEFHESGLLRFKQVSDMGVIHPLYKSTVGGRRNENLVITGNNQPIVFQQGTTKLSVENNKTSITSDIGMQFFDPRTQNILFSTDYETHEFHLPSGVKSLNVQKASTERITSNATSDLNIKVDGRAIVRGNEGVFIMGKTIEFHMGGNMELKAENSIILNGSVMVSTTRLPSSSSGDQLGSGDWVRYKLCMCADGTLFKVQVTSQNMGCQISDNPCGNTH [A88P] stands -1.07; under MAAAAAAAAEQQSSNGPVKKSMREKAVERRSVNKEHNSNFKAGYIPIDEDRLHKTGLRGRKGNLAICVIILLFILAVINLIITLVIWSVIRIGPNGCDSMEFHESGLLRFKQVSDMGVIHPLYKSTVGGRRNENLVITGNNQPIVFQQGTTKLSVENNKTSITSDIGMQFFDPRTQNILFSTDYETHEFHLPSGVKSLNVQKASTERITSNATSDLNIKVDGRAIVRGNEGVFIMGKTIEFHMGGNMELKAENSIILNGSVMVSTTRLPSSSSGDQLGSGDWVRYKLCMCADGTLFKVQVTSQNMGCQISDNPCGNTH [A88S], 0.49.
